Numbered stars: 1 amine (or outer) side, 2 acyl side, 3 side chain; on linkers, the order of the positions; unused ones are H or OH. Square brackets hold non-standard residues; d marks the D form. * marks the point of attachment. Hyp(Bzl) = O-benzyl-trans-4-hydroxyproline, O=C([C@@H]1C[C@@H](OCc2ccccc2)CN1[*:1])[*:2]; Asp(NHPen) = N-omega-pentylasparagine, CCCCCNC(=O)C[C@H](N[*:1])C(=O)[*:2]; pY = N[C@@H](Cc1ccc(OP(=O)(O)O)cc1)C(=O)O; Phe(4-Cl) = N[C@@H](Cc1ccc(Cl)cc1)C(=O)O; Pro(4S-NH2) = N[C@@H]1CN[C@H](C(=O)O)C1; Phe(3-F) = N[C@@H](Cc1cccc(F)c1)C(=O)O; Phe(4-F) = N[C@@H](Cc1ccc(F)cc1)C(=O)O; Ala(Pip) = (4-piperidin-1-yl)alanine; Phe(2-F) = N[C@@H](Cc1ccccc1F)C(=O)O; Arg(Me) = CNC(=N)NCCC[C@H](N)C(=O)O; Hyp = O=C(O)[C@@H]1C[C@@H](O)CN1; dNMeF = CN[C@H](Cc1ccccc1)C(=O)O; His(3Me) = 3-methylhistidine; Orn = NCCC[C@H](N)C(=O)O; Aib = CC(C)(N)C(=O)O; Glycolyl = O=C(CO)*; Ahx = NCCCCCC(=O)O; azaGly = NNC(=O)O
Molecular target: human OT7T175 (metastin receptor) (human) (UniProt Q969F8)
Assay: cell-based or functional assay

human OT7T175 (metastin receptor) (human), sequence (Q969F8 whole entry L364H): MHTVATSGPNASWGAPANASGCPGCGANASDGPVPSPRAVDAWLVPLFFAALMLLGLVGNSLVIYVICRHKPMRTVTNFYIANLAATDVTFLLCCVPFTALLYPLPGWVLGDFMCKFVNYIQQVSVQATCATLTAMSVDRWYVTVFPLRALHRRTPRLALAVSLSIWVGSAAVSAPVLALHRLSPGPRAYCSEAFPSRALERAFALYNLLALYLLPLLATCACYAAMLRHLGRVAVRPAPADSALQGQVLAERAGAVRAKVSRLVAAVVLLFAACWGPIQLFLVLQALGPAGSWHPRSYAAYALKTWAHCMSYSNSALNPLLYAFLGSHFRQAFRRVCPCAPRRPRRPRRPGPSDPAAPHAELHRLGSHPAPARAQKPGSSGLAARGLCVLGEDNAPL

Binder | intracellular Ca ion level-increasing activity [specific activity to Metastin (1-54)] (relative to Metastin (1-54))
Ac-[dY]KNT[Phe(4-F)][azaGly]L[Arg(Me)]W-NH2 (SMILES CNC(=N)NCCC[C@H](NC(=O)[C@H](CC(C)C)NC(=O)NNC(=O)[C@H](Cc1ccc(F)cc1)NC(=O)[C@@H](NC(=O)[C@H](CC(N)=O)NC(=O)[C@H](CCCCN)NC(=O)[C@@H](Cc1ccc(O)cc1)NC(C)=O)[C@@H](C)O)C(=O)N[C@@H](Cc1c[nH]c2ccccc12)C(N)=O) [des(1)-Ac-[D-Tyr2,Lys3,Thr5,Phe(4F)6,AzaGly7,Arg(Me)9,Trp10]MS10] | 3.4
Ac-[dY]ENT[Phe(4-F)][azaGly]L[Arg(Me)]W-NH2 (SMILES CNC(=N)NCCC[C@H](NC(=O)[C@H](CC(C)C)NC(=O)NNC(=O)[C@H](Cc1ccc(F)cc1)NC(=O)[C@@H](NC(=O)[C@H](CC(N)=O)NC(=O)[C@H](CCC(=O)O)NC(=O)[C@@H](Cc1ccc(O)cc1)NC(C)=O)[C@@H](C)O)C(=O)N[C@@H](Cc1c[nH]c2ccccc12)C(N)=O) [des(1)-Ac-[D-Tyr2,Glu3,Thr5,Phe(4F)6,AzaGly7,Arg(Me)9,Trp10]MS10] | 2.7
Ac-[dY][dNMeF]NTF[azaGly]L[Arg(Me)]W-NH2 (SMILES CNC(=N)NCCC[C@H](NC(=O)[C@H](CC(C)C)NC(=O)NNC(=O)[C@H](Cc1ccccc1)NC(=O)[C@@H](NC(=O)[C@H](CC(N)=O)NC(=O)[C@@H](Cc1ccccc1)N(C)C(=O)[C@@H](Cc1ccc(O)cc1)NC(C)=O)[C@@H](C)O)C(=O)N[C@@H](Cc1c[nH]c2ccccc12)C(N)=O) [des(1)-Ac-[D-Tyr2,D-NMePhe3,Thr5,AzaGly7,Arg(Me)9,Trp10]MS10] | 1.8
Ac-[dY][Orn]NTF[azaGly]L[Arg(Me)]W-NH2 (SMILES CNC(=N)NCCC[C@H](NC(=O)[C@H](CC(C)C)NC(=O)NNC(=O)[C@H](Cc1ccccc1)NC(=O)[C@@H](NC(=O)[C@H](CC(N)=O)NC(=O)[C@H](CCCN)NC(=O)[C@@H](Cc1ccc(O)cc1)NC(C)=O)[C@@H](C)O)C(=O)N[C@@H](Cc1c[nH]c2ccccc12)C(N)=O) [des(1)-Ac-[D-Tyr2,Orn3,Thr5,AzaGly7,Arg(Me)9,Trp10]MS10] | 1.9
Ac-[dY][Ala(Pip)]NTF[azaGly]L[Arg(Me)]W-NH2 (also: position 2 DL, both configurations) [des(1)-Ac-[D-Tyr2,DL-Ala(Pip)3,Thr5,AzaGly7,Arg(Me)9,Trp10]MS10] | 2
Ac-[Ahx]NTF[azaGly]L[Arg(Me)]W-NH2 (SMILES CNC(=N)NCCC[C@H](NC(=O)[C@H](CC(C)C)NC(=O)NNC(=O)[C@H](Cc1ccccc1)NC(=O)[C@@H](NC(=O)[C@H](CC(N)=O)NC(=O)CCCCCNC(C)=O)[C@@H](C)O)C(=O)N[C@@H](Cc1c[nH]c2ccccc12)C(N)=O) [des(1-2)-Ac-[Acp3,Thr5,AzaGly7,Arg(Me)9,Trp10]MS10] | 3.7
Ac-[dY][pY]NTF[azaGly]L[Arg(Me)]W-NH2 (SMILES CNC(=N)NCCC[C@H](NC(=O)[C@H](CC(C)C)NC(=O)NNC(=O)[C@H](Cc1ccccc1)NC(=O)[C@@H](NC(=O)[C@H](CC(N)=O)NC(=O)[C@H](Cc1ccc(OP(=O)(O)O)cc1)NC(=O)[C@@H](Cc1ccc(O)cc1)NC(C)=O)[C@@H](C)O)C(=O)N[C@@H](Cc1c[nH]c2ccccc12)C(N)=O) [des(1)-Ac-[D-Tyr2,Tyr(PO3H2)3,Thr5,AzaGly7,Arg(Me)9,Trp10]MS10] | 1.3
Ac-[dY]GNT[Phe(2-F)][azaGly]L[Arg(Me)]W-NH2 (SMILES CNC(=N)NCCC[C@H](NC(=O)[C@H](CC(C)C)NC(=O)NNC(=O)[C@H](Cc1ccccc1F)NC(=O)[C@@H](NC(=O)[C@H](CC(N)=O)NC(=O)CNC(=O)[C@@H](Cc1ccc(O)cc1)NC(C)=O)[C@@H](C)O)C(=O)N[C@@H](Cc1c[nH]c2ccccc12)C(N)=O) [des(1)-Ac-[D-Tyr2,Gly3,Thr5,Phe(2F)6,AzaGly7,Arg(Me)9,Trp10]MS10] | 8.8
Ac-[dY][dW][Asp(NHPen)]TF[azaGly]L[Arg(Me)]W-NH2 (SMILES CCCCCNC(=O)C[C@H](NC(=O)[C@@H](Cc1c[nH]c2ccccc12)NC(=O)[C@@H](Cc1ccc(O)cc1)NC(C)=O)C(=O)N[C@H](C(=O)N[C@@H](Cc1ccccc1)C(=O)NNC(=O)N[C@@H](CC(C)C)C(=O)N[C@@H](CCCNC(=N)NC)C(=O)N[C@@H](Cc1c[nH]c2ccccc12)C(N)=O)[C@@H](C)O) [des(1)-Ac-[D-Tyr2,D-Trp3,Asp(NHPen)4,Thr5,AzaGly7,Arg(Me)9,Trp10]MS10] | 0.7
Ac-[dY][His(3Me)]NTF[azaGly]L[Arg(Me)]W-NH2 [des(1)-Ac-[D-Tyr2,His(3Me)3,Thr5,AzaGly7,Arg(Me)9,Trp10]MS10] | 1.1
Ac-[dY][Aib]NT[Phe(3-F)][azaGly]L[Arg(Me)]W-NH2 (SMILES CNC(=N)NCCC[C@H](NC(=O)[C@H](CC(C)C)NC(=O)NNC(=O)[C@H](Cc1cccc(F)c1)NC(=O)[C@@H](NC(=O)[C@H](CC(N)=O)NC(=O)C(C)(C)NC(=O)[C@@H](Cc1ccc(O)cc1)NC(C)=O)[C@@H](C)O)C(=O)N[C@@H](Cc1c[nH]c2ccccc12)C(N)=O) [des(1)-Ac-[D-Tyr2,Aib3,Thr5,Phe(3F)6,AzaGly7,Arg(Me)9,Trp10]MS10] | 3.3
Ac-[dY][Hyp]NT[Phe(4-F)][azaGly]L[Arg(Me)]W-NH2 (SMILES CNC(=N)NCCC[C@H](NC(=O)[C@H](CC(C)C)NC(=O)NNC(=O)[C@H](Cc1ccc(F)cc1)NC(=O)[C@@H](NC(=O)[C@H](CC(N)=O)NC(=O)[C@@H]1C[C@@H](O)CN1C(=O)[C@@H](Cc1ccc(O)cc1)NC(C)=O)[C@@H](C)O)C(=O)N[C@@H](Cc1c[nH]c2ccccc12)C(N)=O) [des(1)-Ac-[D-Tyr2,Hyp3,Thr5,Phe(4F)6,AzaGly7,Arg(Me)9,Trp10]MS10] | 2.3
Ac-[dY]NTF[azaGly]L[Arg(Me)]W-NH2 (SMILES CNC(=N)NCCC[C@H](NC(=O)[C@H](CC(C)C)NC(=O)NNC(=O)[C@H](Cc1ccccc1)NC(=O)[C@@H](NC(=O)[C@H](CC(N)=O)NC(=O)[C@@H](Cc1ccc(O)cc1)NC(C)=O)[C@@H](C)O)C(=O)N[C@@H](Cc1c[nH]c2ccccc12)C(N)=O) [des(1-2)-Ac-[D-Tyr3,Thr5,AzaGly7,Arg(Me)9,Trp10]MS10] | 1.8
Glycolyl-[dY][Hyp]NTF[azaGly]L[Arg(Me)]W-NH2 (SMILES CNC(=N)NCCC[C@H](NC(=O)[C@H](CC(C)C)NC(=O)NNC(=O)[C@H](Cc1ccccc1)NC(=O)[C@@H](NC(=O)[C@H](CC(N)=O)NC(=O)[C@@H]1C[C@@H](O)CN1C(=O)[C@@H](Cc1ccc(O)cc1)NC(=O)CO)[C@@H](C)O)C(=O)N[C@@H](Cc1c[nH]c2ccccc12)C(N)=O) [des(1)-Glycoloyl-[D-Tyr2,Hyp3,Thr5,AzaGly7,Arg(Me)9,Trp10]MS10] | 1.5
Ac-[dY][Aib]NT[Phe(2-F)][azaGly]L[Arg(Me)]W-NH2 (SMILES CNC(=N)NCCC[C@H](NC(=O)[C@H](CC(C)C)NC(=O)NNC(=O)[C@H](Cc1ccccc1F)NC(=O)[C@@H](NC(=O)[C@H](CC(N)=O)NC(=O)C(C)(C)NC(=O)[C@@H](Cc1ccc(O)cc1)NC(C)=O)[C@@H](C)O)C(=O)N[C@@H](Cc1c[nH]c2ccccc12)C(N)=O) [des(1)-Ac-[D-Tyr2,Aib3,Thr5,Phe(2F)6,AzaGly7,Arg(Me)9,Trp10]MS10] | 3.4
Ac-[dY][Hyp(Bzl)]NTF[azaGly]L[Arg(Me)]W-NH2 (SMILES CNC(=N)NCCC[C@H](NC(=O)[C@H](CC(C)C)NC(=O)NNC(=O)[C@H](Cc1ccccc1)NC(=O)[C@@H](NC(=O)[C@H](CC(N)=O)NC(=O)[C@@H]1C[C@@H](OCc2ccccc2)CN1C(=O)[C@@H](Cc1ccc(O)cc1)NC(C)=O)[C@@H](C)O)C(=O)N[C@@H](Cc1c[nH]c2ccccc12)C(N)=O) [des(1)-Ac-[D-Tyr2,Hyp(Bzl)3,Thr5,AzaGly7,Arg(Me)9,Trp10]MS10] | 1
Ac-[dY][Aib]NT[Phe(4-Cl)][azaGly]L[Arg(Me)]W-NH2 (SMILES CNC(=N)NCCC[C@H](NC(=O)[C@H](CC(C)C)NC(=O)NNC(=O)[C@H](Cc1ccc(Cl)cc1)NC(=O)[C@@H](NC(=O)[C@H](CC(N)=O)NC(=O)C(C)(C)NC(=O)[C@@H](Cc1ccc(O)cc1)NC(C)=O)[C@@H](C)O)C(=O)N[C@@H](Cc1c[nH]c2ccccc12)C(N)=O) [des(1)-Ac-[D-Tyr2,Aib3,Thr5,Phe(4Cl)6,AzaGly7,Arg(Me)9,Trp10]MS10] | 2.6
Ac-[dY][Pro(4S-NH2)]NTF[azaGly]L[Arg(Me)]W-NH2 (SMILES CNC(=N)NCCC[C@H](NC(=O)[C@H](CC(C)C)NC(=O)NNC(=O)[C@H](Cc1ccccc1)NC(=O)[C@@H](NC(=O)[C@H](CC(N)=O)NC(=O)[C@@H]1C[C@H](N)CN1C(=O)[C@@H](Cc1ccc(O)cc1)NC(C)=O)[C@@H](C)O)C(=O)N[C@@H](Cc1c[nH]c2ccccc12)C(N)=O) [des(1)-Ac-[D-Tyr2,Pro(4NH2)3,Thr5,AzaGly7,Arg(Me)9,Trp10]MS10] | 2.1
Ac-[dY]GNT[Phe(3-F)][azaGly]L[Arg(Me)]W-NH2 (SMILES CNC(=N)NCCC[C@H](NC(=O)[C@H](CC(C)C)NC(=O)NNC(=O)[C@H](Cc1cccc(F)c1)NC(=O)[C@@H](NC(=O)[C@H](CC(N)=O)NC(=O)CNC(=O)[C@@H](Cc1ccc(O)cc1)NC(C)=O)[C@@H](C)O)C(=O)N[C@@H](Cc1c[nH]c2ccccc12)C(N)=O) [des(1)-Ac-[D-Tyr2,Gly3,Thr5,Phe(3F)6,AzaGly7,Arg(Me)9,Trp10]MS10] | 3.2
Ac-[dY]TNTF[azaGly]L[Arg(Me)]W-NH2 (SMILES CNC(=N)NCCC[C@H](NC(=O)[C@H](CC(C)C)NC(=O)NNC(=O)[C@H](Cc1ccccc1)NC(=O)[C@@H](NC(=O)[C@H](CC(N)=O)NC(=O)[C@@H](NC(=O)[C@@H](Cc1ccc(O)cc1)NC(C)=O)[C@@H](C)O)[C@@H](C)O)C(=O)N[C@@H](Cc1c[nH]c2ccccc12)C(N)=O) [des(1)-Ac-[D-Tyr2,Thr3,Thr5,AzaGly7,Arg(Me)9,Trp10]MS10] | 1.3

Source: patent US20090105152A1
